These results are taken from article PMC4063869, “Structure of CbpA J-Domain Bound to the Regulatory Protein CbpM Explains Its Specificity and Suggests Evolutionary Link between CbpM and Transcriptional Regulators” (PLoS ONE, 2014).

Data set [1] has as its target Klebsiella pneumoniae CbpM (residues 2-101) (Klebsiella pneumoniae (strain ATCC 700721/MGH 78578)). Briefly: crystal structure; K. pneumoniae CbpM with E. coli CbpA^Jdom, complex separated from excess CbpA^Jdom on Superdex 75; hanging drop, 0.1 M HEPES pH 7, 20% (w/v) PEG 8K; 1.87 Å.
Data set [2] deals with the molecule itself. The data set is described as above.
Data set [3] concerns the target T1, CbpM (residues 2-101), species not named for the experiment ( (E. coli K-12 or K. …, UniProt P63264 2-101)).
T1 construct: CbpM residues 2-101; the immobilisation is told there; also called immobilized CbpM; source: E. coli Rosetta pLysS, purified (Ni-NTA, tag cleaved, amylose resin, size exclusion); not shown: His-MBP, N-terminal, cleaved
T1 sequence: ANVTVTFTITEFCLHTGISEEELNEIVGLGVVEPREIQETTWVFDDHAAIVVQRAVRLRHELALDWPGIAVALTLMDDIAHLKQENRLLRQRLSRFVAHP
Briefly: SPR; CbpM immobilised, DnaJ^Jdom variants injected (50 µL/min, 120 s); ProteOn XPR36, 25°C, 50 mM sodium phosphate pH 7.4, 100 mM NaCl, 1 mM DTT, 0.005% Tween 20; steady-state equilibrium fit (one site). Particulars: both partners purified. On the technique in general: Surface plasmon resonance follows binding to a sensor surface in real time, without labels.

“J-domain of E. coli CbpA (CbpA^Jdom) (domain or fragment)” gave a stoichiometry N (binder:target chains (printed 2:2)) in data set [1] of 1.

B1: Klebsiella pneumoniae CbpM (residues 2-101) (natural protein, UniProt A0A378AXB4 2-101, looked up)
chain: ATVTVTFTITELCLRTGVSEEELTEIVGLGMIEPHQPQADTWLFDDSAVTIVHRAVRLRNELELDWPGIAVALTLLDENARLTRENRLLQQRLARFLAHG
notes: CbpM of Klebsiella pneumoniae (strain ATCC 700721/MGH 78578), residues 2-101, amplified from genomic DNA; Forms a parallel coiled-coil dimer in the crystal; each CbpA J-domain touches both subunits; also called K. pneumoniae CbpM; Klebsiella CbpM; source: E. coli Rosetta pLysS, purified (Ni-NTA, tag cleaved, amylose resin, size exclusion); not shown: His-MBP, N-terminal, cleaved
The term stoichiometry N denotes the number of molecules, sites or subunits per partner or assembly. As for B1, the “stoichiometry N” value in data set [2] came to 2.

B2: Chimeric DnaJ^Jdom(25-47): DnaJ J-domain with the central region Y25-F47 replaced by that of CbpA^Jdom (domain or fragment, E. coli, UniProt P08622 2-79, looked up)
chain: AKQDYYEILGVSKTAEEREIRKAYRRLARKYHPDVSKEPDAEARFKEIKEAYEVLTDSQKRAAYDQYGHAAFEQGGM
notes: DnaJ of E. coli, J-domain, residues 2-79, with residues 25-47 replaced by residues 25-46 of E. coli CbpA; also called chimera DnaJ^Jdom (25-47); source: E. coli Rosetta pLysS, purified (glutathione sepharose, tag cleaved, size exclusion); not shown: GST, N-terminal, cleaved
For orientation: Kd means the constant that tells how readily two partners part at equilibrium. The molecule B2 returned a Kd in data set [3] of 26 µM.
